Measured values from patent US7704703B2, “Arf and Hdm2 interaction domains and the methods of use thereof” (St. Jude Children's Research Hospital, Inc., priority 2002, dated 2010).

T1: mArfN37 (Mus musculus, UniProt Q64364)
T1 construct: mouse p19^Arf corresponding to residues 1-37 (mArfN37); made in house; host or cells: E. coli BL21(DE3) (purified 'in a similar manner' to the Hdm2 fragments)
T1 sequence (Q64364 1-37 limits assumed): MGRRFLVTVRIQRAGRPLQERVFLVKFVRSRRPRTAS

T2: GFP-p19^Arf (Mus musculus, UniProt Q64364)
T2 construct: expressed in transfected cells; host or cells: NIH 3T3 Arf-/- cells
T2 sequence (Q64364 1-169): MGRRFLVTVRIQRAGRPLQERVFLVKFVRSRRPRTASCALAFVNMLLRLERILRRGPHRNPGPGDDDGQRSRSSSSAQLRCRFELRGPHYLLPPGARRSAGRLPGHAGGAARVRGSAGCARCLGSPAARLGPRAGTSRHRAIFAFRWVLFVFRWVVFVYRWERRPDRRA


Columns and labels:
mArfN37 = target: T1, mArfN37; assay: Surface plasmon resonance: Hdm2 fragments and peptides binding to immobilized His-tagged mArfN37; conditions: Hdm2 protein fragments as analyte; no binding to control surface
Description: Surface Plasmon Resonance. Binding studies were performed using a Biacore 3000 surface plasmon resonance (SPR) instrument (Biacore, Inc.). A Tetra-His™ Antibody (Qiagen, Inc.; Cat. #34670) was covalently attached to a carboxymethylated gold surface (C-1 chip; Biacore, Inc.). The carboxymethyl groups on the surface were activated with N-ethyl-N′-(3-dimethylaminopropyl) carbodiimide (EDC) and N-hydroxysuccinimide (NHS) and the antibody was attached at pH 7.4 in 20 mM sodium phosphate buffer, 150 mM NaCl (PBS). Reactive sites remaining on the surface were blocked by reaction with ethanolamine. […] Binding was measured by flowing the non-His-tagged analyte through the reference and ligand-containing flow cells in sequence. […] Changes in the SPR response due to solvent differences and the injection process were monitored by injection of HBS-N buffer alone. […]
Small segments of Arf and Hdm2 participate in Arf/Hdm2 interactions. […] However, because mArfN37 is a relatively small polypeptide, it was determined whether it could bind a correspondingly small segment of Hdm2. To test this hypothesis and to monitor Arf/Hdm2 binding reactions quantitatively, Hdm2 constructs were prepared spanning amino acids 210-304 of SEQ ID NO:8 and 210-275 of SEQ ID NO:8 and then it was determined whether they could bind mArfN37 using surface plasmon resonance (SPR). […]

GFP-p19^Arf = target: T2, GFP-p19^Arf; assay: Microinjection and live cell imaging of Texas Red labeled Hdm2 constructs in NIH 3T3 cells lacking Arf; assay type: cell-based; conditions: transfected with GFP-p19^Arf
Description: Fluorescent labeling. Proteins for fluorescence microimaging studies were covalently modified using an amine-reactive, sulfosuccinimidyl ester of TEXAS RED® (C31H29S2N2O6Cl1) (Molecular Probes, Inc., Cat. # C-1171). In brief, purified Hdm2-derived proteins were dialyzed into 100 mM sodium bicarbonate buffer, pH 8.3 at 2-4 mg/ml. The Texas Red™ dye was dissolved in dimethylsulfoxide at 10 mg/ml. Protein and dye 3:1 (vol:vol) were reacted for 1 hour at room temperature followed by purification using size-exclusion chromatography (NAP 5 G-25 columns, Amersham Pharmacia Biotech, Inc.). […]
Cell culture and microinjection. […] GFP-Arf positive cells were then located and co-injected with TEXAS RED® (C31H29S2N2O6C1 labeled Hdm2 polypeptides (2 mg/ml in 20 mM Tris-HCl, 100 mM NaCl, pH 7.0) using a Micromanipulator 5171/Transjector 5246 (Eppendorf, AG) in media supplemented with 10 mM HEPES, pH 7.2 to buffer cell media during injection and imaging. Representative cells were imaged over time. An Axiovert 135 TV inverted fluorescence microscope with an automated stage controller (Carl Zeiss, Inc.) and circulating water bath heater (Fisher) was used for both microinjection and imaging. Images were acquired with a Zeiss 40×NA=1.30 oil objective and MicroMax CCD camera (Princeton Instruments Inc.) operated with MetaMorph Version 4.01 imaging software. […]

binding of Hdm2 fragment to His-tagged mArfN37 immobilized on SPR biosensor surface (mArfN37) | Molecule | localization after nuclear microinjection in the presence of GFP-p19^Arf (GFP-p19^Arf)
bind tightly | Hdm2 210-275: fragment of Hdm2 corresponding to residues 210-275 of SEQ ID NO:8 (protein, listed as Homo sapiens) SSSSESTGTPSNPDLDAGVSEHSGDWLDQDSVSDQFSVEFEVESLDSEDYSLSEEGQELSDEDDEV | nucleolar localization
 | Hdm2 277-350: Texas Red labeled Hdm2 deletion construct containing residues 277-350 (protein) QVTVYQAGESDTDSFEEDPEISLADYWKCTSCNEMNPPLPSHCNRCWALRENWLPEDKGKDKGEISEKAKLENS | localized in the nucleoplasm rather than in nucleoli
